Data published in patent US20030125311A1, “Compounds capable of binding with the cytoskeleton” (priority 2002, published 2003).

Tested on: binding sites of PREG [3H] in brain cytosol
Assay: Effects of hydrolytic enzymes on the binding of PREG [3H] in cytosol
Set-up: species or system rat
Conditions: for % of Control (binding of PREG [3H]): cytosol incubated with enzyme at 37° C. for 30 min, mean±standard error, n=3
Procedure: Proteinase K (Merck, Darmstadt, Germany) and Pronase® are dissolved at 1 mg/ml in TNM buffer containing 10 mM of Tris, 0.1M of NaCl, 3 mM of MgCl2 (pH 7.4). Deoxyribonuclease I and ribonuclease A are products of Sigma-Aldrich and are respectively adjusted to 100 IU/ml and 5 IU/ml. Phospholipase A2 (Roche Molecular Biochemicals) is diluted to 20 IU/ml in TNM.
1 ml of brain cytosol is incubated with 0.2 ml of an enzyme solution at 37° C. for 30 min. The binding activity is studied of samples (0.2 ml) which had undergone the enzyme treatment or control samples diluted with buffer only.
To study the effects of hydrolytic enzymes on the binding of PREG [^3H], samples of 1 ml of cytosol incubated with 0.2 ml of an enzyme solution at 37° C. for 30 min were used. The results obtained, expressed as % of the control incubation (cytosol diluted in a buffer) are reported in Table 1 (mean±standard error, n=3).

Molecule	% of Control (binding of PREG [3H])	binding sites of PREG [3H] destroyed (enzyme treatment of cytosol)	effect on binding sites of PREG [3H] (in words) (enzyme treatment of cytosol)
Proteinase K: hydrolytic enzyme (Merck) used to treat cytosol (protein, UniProt P06873 106-384, looked up) Proteinase K: AAQTNAPWGLARISSTSPGTSTYYYDESAGQGSCVYVIDTGIEASHPEFEGRAQMVKTYYYSSRDGNGHGTHCAGTVGSRTYGVAKKTQLFGVKVLDDNGSGQYSTIIAGMDFVASDKNNRNCPKGVVASLSLGGGYSSSVNSAAARLQSSGVMVAVAAGNNNADARNYSPASEPSVCTVGASDRYDRRSSFSNYGSVLDIFGPGTSILSTWIGGSTRSISGTSMATPHVAGLAAYLMTLGKTTAASACRYIADTANKGDLSNIPFGTVNLLAYNNYQA	42.4 ± 7.5%	60%	–
Ribonuclease A: hydrolytic enzyme (Sigma-Aldrich) used to treat cytosol (protein, UniProt P61823 27-150, looked up) Ribonuclease pancreatic: KETAAAKFERQHMDSSTSAASSSNYCNQMMKSRNLTKDRCKPVNTFVHESLADVQAVCSQKNVACKNGQTNCYQSYSTMSITDCRETGSSKYPNCAYKTTQANKHIIVACEGNPYVPVHFDASV	82.4 ± 9.2%	–	no significant effect
